The test deals with ab1ip_mouse Apbb1ip (UniProt Q8R5A3).
UniProt Q8R5A3, sequence (Q8R5A3 whole entry): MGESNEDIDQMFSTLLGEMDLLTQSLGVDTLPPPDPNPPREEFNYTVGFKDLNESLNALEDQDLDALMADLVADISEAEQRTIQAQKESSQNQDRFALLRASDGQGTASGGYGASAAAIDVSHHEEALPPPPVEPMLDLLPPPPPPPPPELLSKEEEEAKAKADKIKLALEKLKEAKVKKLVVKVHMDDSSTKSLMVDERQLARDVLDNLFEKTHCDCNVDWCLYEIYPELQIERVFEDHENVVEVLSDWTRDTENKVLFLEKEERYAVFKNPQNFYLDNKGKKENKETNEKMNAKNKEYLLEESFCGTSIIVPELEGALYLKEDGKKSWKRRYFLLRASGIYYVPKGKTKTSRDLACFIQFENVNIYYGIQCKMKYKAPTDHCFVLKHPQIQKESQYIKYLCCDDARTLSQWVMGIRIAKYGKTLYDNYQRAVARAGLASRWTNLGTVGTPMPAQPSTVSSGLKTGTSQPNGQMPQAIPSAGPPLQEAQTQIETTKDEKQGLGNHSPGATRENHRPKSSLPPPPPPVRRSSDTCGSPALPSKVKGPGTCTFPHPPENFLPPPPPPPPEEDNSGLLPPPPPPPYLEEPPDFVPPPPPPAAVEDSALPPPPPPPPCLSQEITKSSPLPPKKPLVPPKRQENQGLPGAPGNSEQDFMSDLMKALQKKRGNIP

As to “Talin-1 (Mus musculus), P26039 E1794Y;E1797Y”, the “effect of a mutation on the interaction” value is recorded as “decreasing interaction strength”.

Consider “Talin-1 (Mus musculus), P26039 E1794Y;E1797Y;Q1801Y”, for which the “effect of a mutation on the interaction” value was “decreasing interaction strength”.

Values taken from IntAct's records for PubMed 27150043.
